± gives the standard deviation of the averaged measurements.
Assay: total protein half-life in vivo (active degradation + dilution); higher = more stable protein
[1] = E. coli NCM3722 delta-lon, growth: N-lim chemostat, doubling time 6 h
[2] = wild type E. coli NCM3722, growth: C-lim chemostat, doubling time 3 h
[3] = wild type E. coli NCM3722, growth: C-lim chemostat, doubling time 6 h
[4] = wild type E. coli NCM3722, growth: C-lim chemostat, doubling time 12 h
[5] = wild type E. coli NCM3722, growth: P-lim chemostat, doubling time 12 h
[6] = E. coli NCM3722 delta-clpP, growth: N-lim chemostat, doubling time 6 h
[7] = E. coli NCM3722 delta-hslV, growth: N-lim chemostat, doubling time 6 h
[8] = E. coli NCM3722 delta-smpB, growth: N-lim chemostat, doubling time 6 h
[9] = wild type E. coli NCM3722, growth: N-lim chemostat, doubling time 6 h
[10] = wild type E. coli NCM3722, growth: N-lim chemostat, doubling time 12 h
[11] = wild type E. coli NCM3722, growth: P-lim chemostat, doubling time 6 h
[12] = E. coli NCM3722 delta-clpP delta-lon delta-hslV, growth: N-lim chemostat, doubling time 6 h

Sequence	total protein half-life in vivo [1]	total protein half-life in vivo [2]	total protein half-life in vivo [3]	total protein half-life in vivo [4]	total protein half-life in vivo [5]	total protein half-life in vivo [6]	total protein half-life in vivo [7]	total protein half-life in vivo [8]	total protein half-life in vivo [9]	total protein half-life in vivo [10]	total protein half-life in vivo [11]	total protein half-life in vivo [12]
MKALARFGKAFGGYKMIDVPQPMCGPEDVVIEIKAAAICGADMKHYNVDSGSDEFNSIRGHEFAGCIAQVGEKVKDWKVGQRVVSDNSGHVCGVCPACEQGDFLCCTEKVNLGLDNNTWGGGFSKYCLVPGEILKIHRHALWEIPDGVDYEDAAVLDPICNAYKSIAQQSKFLPGQDVVVIGTGPLGLFSVQMARIMGAVNIVVVGLQEDVAVRFPVAKELGATAVVNGSTEDVVARCQQICGKDNLGLVIECSGANIALKQAIEMLRPNGEVVRVGMGFKPLDFSINDITAWNKSIIGHMAYDSTSWRNAIRLLASGAIKVKPMITHRIGLSQWREGFDAMVDKTAIKVIMTYDFDE	4.04 h	1.33 h	2.23 h	3.7 ± 0.86 h	5.73 h	–	–	–	–	–	–	–
MKTRIHVVQGDITKLAVDVIVNAANPSLMGGGGVDGAIHRAAGPALLDACLKVRQQQGDCPTGHAVITLAGDLPAKAVVHTVGPVWRGGEQNEDQLLQDAYLNSLRLVAANSYTSVAFPAISTGVYGYPRAAAAEIAVKTVSEFITRHALPEQVYFVCYDEENAHLYERLLTQQGDE [P0A8D6]	4.294 ± 0.033 h	–	5.89 ± 0.66 h	9.58 ± 0.72 h	12 ± 0.23 h	4.32 ± 0.98 h	4.02 ± 0.17 h	3.89 ± 0.28 h	4.63 ± 0.32 h	6.81 ± 0.32 h	5.95 ± 0.57 h	–
MSDISKASLPKAIFLMGPTASGKTALAIELRKILPVELISVDSALIYKGMDIGTAKPNAEELLAAPHRLLDIRDPSQAYSAADFRRDALAEMADITAAGRIPLLVGGTMLYFKALLEGLSPLPSADPEVRARIEQQAAEQGWESLHRQLQEVDPVAAARIHPNDPQRLSRALEVFFISGKTLTELTQTSGDALPYQVHQFAIAPASRELLHQRIEQRFHQMLASGFEAEVRALFARGDLHTDLPSIRCVGYRQMWSYLEGEISYDEMVYRGVCATRQLAKRQITWLRGWEGVHWLDSEKPEQARDEVLQVVGAIAG	5.42 ± 0.37 h	3.18 ± 0.12 h	5.47 ± 0.15 h	8.97 ± 0.41 h	11.71 ± 0.1 h	4.338 ± 0.019 h	5.26 ± 1.1 h	4.279 ± 0.03 h	4.32 ± 0.4 h	6.84 ± 1.1 h	5.67 ± 0.43 h	–
METKDLIVIGGGINGAGIAADAAGRGLSVLMLEAQDLACATSSASSKLIHGGLRYLEHYEFRLVSEALAEREVLLKMAPHIAFPMRFRLPHRPHLRPAWMIRIGLFMYDHLGKRTSLPGSTGLRFGANSVLKPEIKRGFEYSDCWVDDARLVLANAQMVVRKGGEVLTRTRATSARRENGLWIVEAEDIDTGKKYSWQARGLVNATGPWVKQFFDDGMHLPSPYGIRLIKGSHIVVPRVHTQKQAYILQNEDKRIVFVIPWMDEFSIIGTTDVEYKGDPKAVKIEESEINYLLNVYNTHFKKQLSRDDIVWTYSGVRPLCDDESDSPQAITRDYTLDIHDENGKAPLLSVFGGKLTTYRKLAEHALEKLTPYYQGIGPAWTKESVLPGGAIEGDRDDYAARLRRRYPFLTESLARHYARTYGSNSELLLGNAGTVSDLGEDFGHEFYEAELKYLVDHEWVRRADDALWRRTKQGMWLNADQQSRVSQWLVEYTQQRLSLAS	2.76 ± 0.13 h	2.1 ± 0.094 h	3.51 ± 0.53 h	4.92 ± 0.65 h	5.02 ± 0.13 h	5.96 ± 0.25 h	2.71 ± 0.75 h	2.4 ± 0.17 h	2.83 ± 0.088 h	4.179 ± 0.033 h	2.92 ± 0.053 h	6.86 ± 0.86 h
MIKSALLVLEDGTQFHGRAIGATGSAVGEVVFNTSMTGYQEILTDPSYSRQIVTLTYPHIGNVGTNDADEESSQVHAQGLVIRDLPLIASNFRNTEDLSSYLKRHNIVAIADIDTRKLTRLLREKGAQNGCIIAGDNPDAALALEKARAFPGLNGMDLAKEVTTAEAYSWTQGSWTLTGGLPEAKKEDELPFHVVAYDFGAKRNILRMLVDRGCRLTIVPAQTSAEDVLKMNPDGIFLSNGPGDPAPCDYAITAIQKFLETDIPVFGICLGHQLLALASGAKTVKMKFGHHGGNHPVKDVEKNVVMITAQNHGFAVDEATLPANLRVTHKSLFDGTLQGIHRTDKPAFSFQGHPEASPGPHDAAPLFDHFIELIEQYRKTAK [P0A6F1]	5.36 ± 0.35 h	3.18 ± 0.27 h	–	9.87 ± 0.035 h	12.1 ± 0.28 h	4.51 ± 0.39 h	4.72 ± 0.13 h	4.6318 ± 0.0031 h	4.466 ± 0.015 h	7.43 ± 0.44 h	5.95 ± 0.087 h	4.95 ± 1 h
MMNKSNFEFLKGVNDFTYAIACAAENNYPDDPNTTLIKMRMFGEATAKHLGLLLNIPPCENQHDLLRELGKIAFVDDNILSVFHKLRRIGNQAVHEYHNDLNDAQMCLRLGFRLAVWYYRLVTKDYDFPVPVFVLPERGENLYHQEVLTLKQQLEQQVREKAQTQAEVEAQQQKLVALNGYIAILEGKQQETEAQTQARLAALEAQLAEKNAELAKQTEQERKAYHKEITDQAIKRTLNLSEEESRFLIDAQLRKAGWQADSKTLRFSKGARPEPGVNKAIAEWPTGKDETGNQGFADYVLFVGLKPIAVVEAKRNNIDVPARLNESYRYSKCFDNGFLRETLLEHYSPDEVHEAVPEYETSWQDTSGKQRFKIPFCYSTNGREYRATMKTKSGIWYRDVRDTRNMSKALPEWHRPEELLEMLGSEPQKQNQWFADNPGMSELGLRYYQEDAVRAVEKAIVKGQQEILLAMATGTGKTRTAIAMMFRLIQSQRFKRILFLVDRRSLGEQALGAFEDTRINGDTFNSIFDIKGLTDKFPEDSTKIHVATVQSLVKRTLQSDEPMPVARYDCIVVDEAHRGYILDKEQTEGELQFRSQLDYVSAYRRILDHFDAVKIALTATPALHTVQIFGEPVYRYTYRTAVIDGFLIDQDPPIQIITRNAQEGVYLSKGEQVERISPQGEVINDTLEDDQDFEVADFNRGLVIPAFNRAVCNELTNYLDPTGSQKTLVFCVTNAHADMVVEELRAAFKKKYPQLEHDAIIKITGDADKDARKVQTMITRFNKERLPNIVVTVDLLTTGVDIPSICNIVFLRKVRSRILYEQMKGRATRLCPEVNKTSFKIFDCVDIYSTLESVDTMRPVVVRPKVELQTLVNEITDSETYKITEADGRSFAEHSHEQLVAKLQRIIGLATFNRDRSETIDKQVRRLDELCQDAAGVNFNGFASRLREKGPHWSAEVFNKLPGFIARLEKLKTDINNLNDAPIFLDIDDEVVSVKSLYGDYDTPQDFLEAFDSLVQRSPNAQPALQAVINRPRDLTRKGLVELQEWFDRQHFEESSLRKAWKETRNEDIAARLIGHIRRAAVGDALKPFEERVDHALTRIKGENDWSSEQLSWLDRLAQALKEKVVLDDDVFKTGNFHRRGGKAMLQRTFDDNLDTLLGKFSDYIWDELA	3.899 ± 0.015 h	2.49 ± 0.13 h	4.7 ± 0.1 h	7.2 ± 0.38 h	6.58 ± 0.092 h	4.93 ± 0.26 h	3.45 ± 0.22 h	3.07 ± 0.13 h	3.52 ± 0.2 h	5.31 ± 0.98 h	3.94 ± 0.11 h	5.34 ± 0.76 h
MKKIICLVITLLMTLPVYAKLTAHEEARINAMLEGLAQKKDLIFVRNGDEHTCYEAVSHLRLKLGNTRNRIDTAEQFIDKVASSSSITGKPYIVKIPGKSDENAQPFLHALIAQTDKTVPAEGN	–	–	–	3.18 h	–	–	–	–	–	–	–	–

Source: the supplement of paper PMC11246515
